{
  "source": "patent US20140271457A1",
  "about": "(AbbVie / Abbott, published 2014)",
  "binders": {"B1": {"name": "DVD3107 (bispecific antibody, IgG1)", "VH": "EVQLVQSGAEVKKPGASVKVSCKASGYTFANYGIIWVRQAPGQGLEWMGWINTYTGKPTYAQKFQGRVTMTTDTSTSTAYMELSSLRSEDTAVYYCARKLFTTMDVTDNAMDYWGQGTTVTVSSASTKGPSVFPLAPEVQLVQSGAEVKKPGASVKVSCKASGYTFTTYGVSWVRQAPGQGLEWMGEIYPGNYNTYYNEKFRGRVTMTTDTSTSTAYMELRSLRSDDTAVYYCARWRTSYFSDYGYFDYWGQGTTVTVSS", "VL": "DIQMTQSPSSLSASVGDRVTITCRASQDISQYLNWYQQKPGKAPKLLIYYTSRLQSGVPSRFSGSGSGTDFTLTISSLQPEDFATYFCQQGNTWPPTFGQGTKLEIKRTVAAPDVVMTQSPLSLPVTLGQPASISCRSSQSLVHSHGNTYLHWYQQRPGQSPRLLIYTVSNRFSGVPDRFSGSGSGTDFTLKISRVEAEDVGVYYCSQSTHVPYTFGGGTKVEIKR", "notes": "DVD-Ig; wt hIgG1 + kappa constants"}, "B2": {"name": "DVD3164 (bispecific antibody, IgG1)", "VH": "EVQLVQSGAEVKKPGASVKVSCKASGYTFANYGIIWVRQAPGQGLEWMGWINTYTGKPTYAQKFQGRVTMTTDTSTSTAYMELSSLRSEDTAVYYCARKLFTTMDVTDNAMDYWGQGTTVTVSSASTKGPEVQLVQSGAEVKKPGASVKVSCKASGYTFTSYWMHWVRQAPGQGLEWIGNINPKGGSNIYNEKFQGRVTMTRDTSISTAYMELSRLRSDDTAVYYCARLDYFGDSFDLWGQGTTVTVSS", "VL": "DIQMTQSPSSLSASVGDRVTITCRASQDISQYLNWYQQKPGKAPKLLIYYTSRLQSGVPSRFSGSGSGTDFTLTISSLQPEDFATYFCQQGNTWPPTFGQGTKLEIKRTVAAPDIQMTQSPSSLSASVGDRVTITCRASQGIRNYLNWYQQKPGKAPKLLIYYASNLEVGVPSRFSGSGSGTDYTLTISSLQPEDFATYYCQQDNRFPYTFGGGTKVEIKR", "notes": "as for B1"}, "B3": {"name": "DVD3166 (bispecific antibody, IgG1)", "VH": "B2 VH", "VL": "DIQMTQSPSSLSASVGDRVTITCRASQDISQYLNWYQQKPGKAPKLLIYYTSRLQSGVPSRFSGSGSGTDFTLTISSLQPEDFATYFCQQGNTWPPTFGQGTKLEIKRTVAAPSVFIFPPDIQMTQSPSSLSASVGDRVTITCRASQGIRNYLNWYQQKPGKAPKLLIYYASNLEVGVPSRFSGSGSGTDYTLTISSLQPEDFATYYCQQDNRFPYTFGGGTKVEIKR", "notes": "as for B1"}, "B4": {"name": "DVD3163 (bispecific antibody, IgG1)", "VH": "EVQLVQSGAEVKKPGASVKVSCKASGYTFANYGIIWVRQAPGQGLEWMGWINTYTGKPTYAQKFQGRVTMTTDTSTSTAYMELSSLRSEDTAVYYCARKLFTTMDVTDNAMDYWGQGTTVTVSSGGGGSGGGGSEVQLVQSGAEVKKPGASVKVSCKASGYTFTSYWMHWVRQAPGQGLEWIGNINPKGGSNIYNEKFQGRVTMTRDTSISTAYMELSRLRSDDTAVYYCARLDYFGDSFDLWGQGTTVTVSS", "VL": "DIQMTQSPSSLSASVGDRVTITCRASQDISQYLNWYQQKPGKAPKLLIYYTSRLQSGVPSRFSGSGSGTDFTLTISSLQPEDFATYFCQQGNTWPPTFGQGTKLEIKRGGSGGGGSGDIQMTQSPSSLSASVGDRVTITCRASQGIRNYLNWYQQKPGKAPKLLIYYASNLEVGVPSRFSGSGSGTDYTLTISSLQPEDFATYYCQQDNRFPYTFGGGTKVEIKR", "notes": "as for B1"}},
  "key": {"[1]": {"target": "Recombinant Human IL-13 (human, UniProt P35225 35-146, limits assumed)", "sequence (P35225 35-146 limits assumed)": "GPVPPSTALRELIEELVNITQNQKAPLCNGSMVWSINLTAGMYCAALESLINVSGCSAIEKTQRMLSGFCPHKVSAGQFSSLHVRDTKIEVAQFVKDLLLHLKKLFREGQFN", "experiment": "Biacore SPR", "outline": "(§1)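 Kinetic constants come from global 1:1 model fitting (Rmax local) at 0.8–100 nM antigen. Flow was 50 μl/min with 5 min association and 10 min dissociation. Capture used goat anti-mouse IgG Fcγ on a CM5 chip in HBS-EP+ at 25 °C.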"}, "[2]": {"target": "T1, Recombinant Human TNF-α/TNFSF1A (human, UniProt P01375 77-233)", "T1 construct": "vendor reagent is named for Biacore; the neutralization assay says only huTNFα; also called huTNFα", "T1 sequence (P01375 77-233 limits assumed)": "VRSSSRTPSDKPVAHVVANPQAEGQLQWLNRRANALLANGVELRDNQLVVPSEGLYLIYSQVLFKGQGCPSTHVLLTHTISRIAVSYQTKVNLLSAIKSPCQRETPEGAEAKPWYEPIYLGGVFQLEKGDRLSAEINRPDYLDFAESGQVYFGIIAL", "experiment": "Biacore SPR", "outline": "as §1"}, "[3]": {"target": "T1, Recombinant Human TNF-α/TNFSF1A", "experiment": "cell-based or functional assay"}},
  "data": [
    {"binder": "B1", "values": [
      {"measurement": "Kd", "setting": "[1]", "result": 0.087, "unit": "nM"},
      {"measurement": "koff", "setting": "[1]", "result": "7e-05", "unit": "s⁻¹"},
      {"measurement": "kon", "setting": "[1]", "result": 810000, "unit": "M⁻¹ s⁻¹"},
      {"measurement": "Kd", "setting": "[2]", "result": 0.053, "unit": "nM"},
      {"measurement": "koff", "setting": "[2]", "result": 0.00015, "unit": "s⁻¹"},
      {"measurement": "kon", "setting": "[2]", "result": "2.8e+06", "unit": "M⁻¹ s⁻¹"},
      {"measurement": "N-Terminal VD huTNFα Neutralization Assay IC50", "setting": "[3]", "result": 0.015, "unit": "nM"}
    ]},
    {"binder": "B2", "values": [
      {"measurement": "Kd", "setting": "[1]", "result": 0.87, "unit": "nM"},
      {"measurement": "koff", "setting": "[1]", "result": "4.8e-05", "unit": "s⁻¹"},
      {"measurement": "kon", "setting": "[1]", "result": 55000, "unit": "M⁻¹ s⁻¹"},
      {"measurement": "Kd", "setting": "[2]", "result": 0.016, "unit": "nM"},
      {"measurement": "koff", "setting": "[2]", "result": "6.5e-05", "unit": "s⁻¹"},
      {"measurement": "kon", "setting": "[2]", "result": "4e+06", "unit": "M⁻¹ s⁻¹"},
      {"measurement": "N-Terminal VD huTNFα Neutralization Assay IC50", "setting": "[3]", "result": 0.021, "unit": "nM"}
    ]},
    {"binder": "B3", "values": [
      {"measurement": "Kd", "setting": "[1]", "result": 0.18, "unit": "nM"},
      {"measurement": "koff", "setting": "[1]", "result": "5.1e-05", "unit": "s⁻¹"},
      {"measurement": "kon", "setting": "[1]", "result": 280000, "unit": "M⁻¹ s⁻¹"},
      {"measurement": "Kd", "setting": "[2]", "result": 0.027, "unit": "nM"},
      {"measurement": "koff", "setting": "[2]", "result": 0.00013, "unit": "s⁻¹"},
      {"measurement": "kon", "setting": "[2]", "result": "4.7e+06", "unit": "M⁻¹ s⁻¹"},
      {"measurement": "N-Terminal VD huTNFα Neutralization Assay IC50", "setting": "[3]", "result": 0.016, "unit": "nM"}
    ]},
    {"binder": "B4", "values": [
      {"measurement": "Kd", "setting": "[1]", "result": 0.61, "unit": "nM"},
      {"measurement": "koff", "setting": "[1]", "result": "8.4e-05", "unit": "s⁻¹"},
      {"measurement": "kon", "setting": "[1]", "result": 140000, "unit": "M⁻¹ s⁻¹"},
      {"measurement": "Kd", "setting": "[2]", "result": 0.0039, "unit": "nM"},
      {"measurement": "koff", "setting": "[2]", "result": "5e-05", "unit": "s⁻¹"},
      {"measurement": "kon", "setting": "[2]", "result": "1.3e+07", "unit": "M⁻¹ s⁻¹"},
      {"measurement": "N-Terminal VD huTNFα Neutralization Assay IC50", "setting": "[3]", "result": 0.015, "unit": "nM"}
    ]}
  ]
}
